Data taken from article PMC5487730, “Functional Role of Lanthanides in Enzymatic Activity and Transcriptional Regulation of Pyrroloquinoline Quinone-Dependent Alcohol Dehydrogenases in Pseudomonas putida KT2440” (mBio, 2017).

Key:
PedE = target: T1, PedE (Pseudomonas putida, UniProt Q88JH5); test: DCPIP/PMS dye-linked activity titrated with PQQ, one-site binding fit; assay type: biochemical; conditions: 10 mM ethanol, 1 mM CaCl2, 25 mM imidazole, 100 mM Tris HCl pH 8, 30°C preincubation
T1 sequence (Q88JH5 34-631): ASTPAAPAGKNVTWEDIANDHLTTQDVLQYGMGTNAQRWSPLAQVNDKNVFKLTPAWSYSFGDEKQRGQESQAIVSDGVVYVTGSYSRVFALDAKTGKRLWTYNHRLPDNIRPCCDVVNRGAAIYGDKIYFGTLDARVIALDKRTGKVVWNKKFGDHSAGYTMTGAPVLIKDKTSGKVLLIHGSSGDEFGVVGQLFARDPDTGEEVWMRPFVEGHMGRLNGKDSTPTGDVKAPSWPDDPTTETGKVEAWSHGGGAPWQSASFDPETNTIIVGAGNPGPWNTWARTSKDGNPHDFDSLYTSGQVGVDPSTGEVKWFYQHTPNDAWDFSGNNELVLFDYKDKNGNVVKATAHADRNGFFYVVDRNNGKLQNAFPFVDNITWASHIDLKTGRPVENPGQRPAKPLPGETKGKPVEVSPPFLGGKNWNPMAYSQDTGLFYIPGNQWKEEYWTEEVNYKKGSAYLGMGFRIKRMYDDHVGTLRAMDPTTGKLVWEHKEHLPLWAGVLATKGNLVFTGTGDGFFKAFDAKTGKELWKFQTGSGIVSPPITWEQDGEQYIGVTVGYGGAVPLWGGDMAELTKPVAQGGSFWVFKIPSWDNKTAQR

PedH = target: T2, PedH (Pseudomonas putida, UniProt Q88JH0); test: as above; assay type: biochemical; conditions: 10 mM ethanol, 1 µM PrCl3, 25 mM imidazole, 100 mM Tris HCl pH 8, 30°C preincubation
T2 sequence (Q88JH0 28-595): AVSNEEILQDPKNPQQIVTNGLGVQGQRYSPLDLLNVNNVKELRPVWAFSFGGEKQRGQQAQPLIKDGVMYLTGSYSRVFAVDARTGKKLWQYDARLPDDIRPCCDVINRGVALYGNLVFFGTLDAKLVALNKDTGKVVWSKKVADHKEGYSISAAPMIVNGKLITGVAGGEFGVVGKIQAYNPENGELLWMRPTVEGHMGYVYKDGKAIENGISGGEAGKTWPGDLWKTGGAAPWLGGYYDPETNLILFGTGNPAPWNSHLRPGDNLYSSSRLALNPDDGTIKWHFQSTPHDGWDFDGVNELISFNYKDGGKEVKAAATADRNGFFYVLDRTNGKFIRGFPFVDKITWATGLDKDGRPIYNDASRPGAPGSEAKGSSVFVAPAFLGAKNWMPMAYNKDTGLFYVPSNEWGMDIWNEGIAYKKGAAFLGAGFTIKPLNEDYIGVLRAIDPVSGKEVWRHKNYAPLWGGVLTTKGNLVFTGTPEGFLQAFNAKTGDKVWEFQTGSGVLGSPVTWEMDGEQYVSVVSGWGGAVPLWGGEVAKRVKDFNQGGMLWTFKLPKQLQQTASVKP

purified protein = substrate: CCO; test: purified protein; conditions: 1 µM PrCl3, 1 µM PQQ, 25 mM imidazole, 500 µM PMS, 150 µM DCPIP, 100 mM Tris HCl pH 8, 30°C preincubation
[1] = substrate: CC=O; test: DCPIP/PMS dye-linked colorimetric assay, Michaelis-Menten fit; assay type: biochemical, Pseudomonas putida; conditions: 1 µM PrCl3, 1 µM PQQ, 25 mM imidazole, 500 µM PMS, 150 µM DCPIP, 100 mM Tris HCl pH 8, 30°C preincubation
[2] = substrate: OCCc1ccccc1; test: as above; assay type: biochemical, Pseudomonas putida; conditions: 1 µM PrCl3, 1 µM PQQ, 25 mM imidazole, 500 µM PMS, 150 µM DCPIP, 100 mM Tris HCl pH 8, 30°C preincubation

`O=C(O)c1cc(C(=O)O)c2c(n1)C(=O)C(=O)c1cc(C(=O)O)[nH]c1-2` [PQQ] was tested, and the Kd (PedE) was 3500 nM and the Kd (PedH) was 41 nM.

B1: PedH (Pseudomonas putida KT2440) (protein)
chain: AVSNEEILQDPKNPQQIVTNGLGVQGQRYSPLDLLNVNNVKELRPVWAFSFGGEKQRGQQAQPLIKDGVMYLTGSYSRVFAVDARTGKKLWQYDARLPDDIRPCCDVINRGVALYGNLVFFGTLDAKLVALNKDTGKVVWSKKVADHKEGYSISAAPMIVNGKLITGVAGGEFGVVGKIQAYNPENGELLWMRPTVEGHMGYVYKDGKAIENGISGGEAGKTWPGDLWKTGGAAPWLGGYYDPETNLILFGTGNPAPWNSHLRPGDNLYSSSRLALNPDDGTIKWHFQSTPHDGWDFDGVNELISFNYKDGGKEVKAAATADRNGFFYVLDRTNGKFIRGFPFVDKITWATGLDKDGRPIYNDASRPGAPGSEAKGSSVFVAPAFLGAKNWMPMAYNKDTGLFYVPSNEWGMDIWNEGIAYKKGAAFLGAGFTIKPLNEDYIGVLRAIDPVSGKEVWRHKNYAPLWGGVLTTKGNLVFTGTPEGFLQAFNAKTGDKVWEFQTGSGVLGSPVTWEMDGEQYVSVVSGWGGAVPLWGGEVAKRVKDFNQGGMLWTFKLPKQLQQTASVKP
B1 showed a Km (purified protein) of 177 µM, a Km [1] of 2261 ± 457 µM and a Km [2] of 329 ± 22 µM.
